Where two headings read alike, the source gives them in different places.
What was measured:
[1] = biological target: T1, LILRB2 on human monocyte-derived macrophages (HMDM) (human, UniProt Q8N423 22-597); assay: cell-based or functional assay
[2] = biological target: T1, LILRB2 on human monocyte-derived …; assay: cell-based or functional assay; remark: listed apart in the source

T1 sequence (Q8N423 22-597): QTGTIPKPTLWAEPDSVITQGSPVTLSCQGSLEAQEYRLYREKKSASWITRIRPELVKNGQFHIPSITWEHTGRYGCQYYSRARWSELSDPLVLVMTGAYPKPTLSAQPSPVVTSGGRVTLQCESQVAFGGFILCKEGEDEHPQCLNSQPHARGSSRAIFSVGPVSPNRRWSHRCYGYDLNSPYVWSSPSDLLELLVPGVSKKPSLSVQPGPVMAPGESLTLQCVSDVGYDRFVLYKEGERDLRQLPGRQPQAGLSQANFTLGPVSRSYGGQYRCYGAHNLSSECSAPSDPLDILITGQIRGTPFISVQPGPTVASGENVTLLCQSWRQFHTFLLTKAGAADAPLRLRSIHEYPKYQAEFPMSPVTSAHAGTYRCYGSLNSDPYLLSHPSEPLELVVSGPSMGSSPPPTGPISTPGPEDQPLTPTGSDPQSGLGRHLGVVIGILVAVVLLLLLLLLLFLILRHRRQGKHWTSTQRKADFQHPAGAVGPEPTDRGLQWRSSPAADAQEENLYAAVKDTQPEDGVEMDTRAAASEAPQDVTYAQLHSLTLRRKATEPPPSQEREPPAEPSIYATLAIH

Binder	CD86 EC50 [nM], re-polarization of M2 macrophages [1]	CD163 EC50 [nM], re-polarization of M2 macrophages [1]	CD206 EC50 [nM], re-polarization of M2 macrophages [1]	IL-1β EC50 [nM], LPS-driven cytokine secretion by HMDM [1]	IL-6 EC50 [nM], LPS-driven cytokine secretion by HMDM [1]	TNF-α EC50 [nM], LPS-driven cytokine secretion by HMDM [1]	IL-1β EC50 [nM], LPS-driven cytokine secretion by HMDM [2]	IL-6 EC50 [nM], LPS-driven cytokine secretion by HMDM [2]	TNF-α EC50 [nM], LPS-driven cytokine secretion by HMDM [2]
PRO3744, scFv (VL-linker-VH) 68-18-E11-sc07_(VL_A67G_S68G_T141C; VH_G51C_T101S_T146K) (scFv) scFv: DVQMTQSPSSLSASVGDRVTITCQASQSIGSNLAWYQQKPGKPPKLLIYKGGTLESGVPSRFSGSGSGTDFTLTISSLQPEDFATYYCQSTAGSSRSGNYGYVFGCGTKVTVLGGGGGSGGGGSGGGGSGGGGSQQLVESGGGLVQPGGSLRLSCAASGFSFTNNYYMCWVRQAPGKCLEWIACMLVGAWGNTYYASWANGRFTISKDNSKNTVYLQMNSLRAEDSAVYFCARARDYTWTLGGDPETSGFNLWGQGTLVKVSS	0.117 nM	0.107 nM	0.136 nM	0.779 nM	0.803 nM	1.1 nM	–	–	–
PRO3697, scFv (VL-linker-VH) 69-06-G04-sc05_(VL_A67G_S68G; VH_T101S_L146K) (scFv) scFv: AFQLTQSPSSLSASVGDRVTITCQASQSIGTYLAWYQQKPGKPPKLLIYRGGTLASGVPSRFSGSGSGTDFTLTISSLQPEDFATYYCQSYDSSNTFGTGTKVTVLGGGGGSGGGGSGGGGSGGGGSQEQLVESGGGLVQPGRSLRLSCAASGFDLSADYMCWVRQAPGKGLEWIACIYIDDDNTYYATWAKGRFTISKDNSKNTVYLQMNSLRAEDSAVYFCARGYGVYTGAITYFTLWGQGTLVKVSS	0.214 nM	0.173 nM	0.512 nM	0.279 nM	0.45 nM	2.2 nM	–	–	–
PRO3696, scFv (VL-linker-VH) 69-01-E02-sc06_(VL_A67G_S68G; VH_T101S_L146K) (scFv) scFv: DVQMTQSPSSLSASVGDRVTITCQASQSIGLNLAWYQQKPGKPPKLLIYAGGYLASGVSSRFSGSGSGTDFTLTISSLQPEDFATYYCQSTYDGSSFVFAFGTGTKVTVLGGGGGSGGGGSGGGGSGGGGSQEQLVESGGGLVQPGGSLRLSCAASGFSFSSSSYMCWVRQAPGKGLEWIACMVTGSSDDTDYASWAKGRFTISKDNSKNTVYLQMNSLRAEDSAVYFCARAGSAPLWGQGTLVKVSS	0.243 nM	0.371 nM	0.587 nM	0.446 nM	0.804 nM	0.891 nM	–	–	–
PRO4672 (37-20-B03-based PDL1-BD), anti-CD47 x PDL1 x LILRB2, (scFv)2-Fc-(scFv)2 (trispecific antibody) chain 1: DVQMTQSPSSLSASVGDRVTITCQASQSISSWVSWYQQKPGKPPKLLIYRGGYLESGVPSRFSASGSGTDFTLTISSLQPEDFATYYCQSTDSSTYGGAFGCGTKVTVLGGGGGSGGGGSGGGGSGGGGSQQVVESGGGLVQPGGSLRLSCAVSGIDLNSYAMTWVRQAPGKCLEWIGYIGSASSTYYASWASGRFTISKDNSKNTVYLQMNSLRAEDSAVYFCARGSTYINIWGQGTLVKVSSEPKSSDKTHTCPPCPAPELLGGPSVFLFPPKPKDTLMISRTPEVTCVVVDVSHEDPEVKFNWYVDGVEVHNAKTKPREEQYNSTYRVVSVLTVLHQDWLNGKEYKCKVSNKALPAPIEKTISKAKGQPREPQVYTLPPCREEMTKNQVSLSCAVKGFYPSDIAVEWESNGQPENNYKTTPPVLDSDGSFFLVSKLTVDKSRWQQGNVFSCSVMHEALHNHYTQKSLSLSPGKGGGGSGGGGSDVQMTQSPSSLSASVGDRVTITCQASQSIGSNLAWYQQKPGKPPKLLIYKGGTLESGVPSRFSGSGSGTDFTLTISSLQPEDFATYYCQSTAGSSRSGNYGYVFGCGTKVTVLGGGGGSGGGGSGGGGSGGGGSQQLVESGGGLVQPGGSLRLSCAASGFSFTNNYYMCWVRQAPGKCLEWIACMLVGAWGNTYYASWANGRFTISKDNSKNTVYLQMNSLRAEDSAVYFCARARDYTWTLGGDPETSGFNLWGQGTLVKVSS chain 2: not shown	–	–	–	–	–	–	0.096 nM	0.078 nM	0.123 nM

Next, values leading:

CD86 EC50 [nM], re-polarization of M2 macrophages [1]	CD163 EC50 [nM], re-polarization of M2 macrophages [1]	CD206 EC50 [nM], re-polarization of M2 macrophages [1]	IL-1β EC50 [nM], LPS-driven cytokine secretion by HMDM [1]	IL-6 EC50 [nM], LPS-driven cytokine secretion by HMDM [1]	TNF-α EC50 [nM], LPS-driven cytokine secretion by HMDM [1]	IL-1β EC50 [nM], LPS-driven cytokine secretion by HMDM [2]	IL-6 EC50 [nM], LPS-driven cytokine secretion by HMDM [2]	TNF-α EC50 [nM], LPS-driven cytokine secretion by HMDM [2]	Binder
–	–	–	–	–	–	0.248 nM	0.153 nM	0.169 nM	PRO4710 (IgG4 of scFv PRO3744, 68-18-E11-sc07) (antibody, V domains shown) VH: QQLVESGGGLVQPGGSLRLSCAASGFSFTNNYYMCWVRQAPGKGLEWIACMLVGAWGNTYYASWANGRFTISKDNSKNTVYLQMNSLRAEDTAVYFCARARDYTWTLGGDPETSGFNLWGQGTLVTVSS VL: DVQMTQSPSSLSASVGDRVTITCQASQSIGSNLAWYQQKPGKPPKLLIYKGGTLESGVPSRFSGSGSGTDFTLTISSLQPEDFATYYCQSTAGSSRSGNYGYVFGQGTKVEIKR
–	–	–	–	–	–	0.082 nM	0.077 nM	0.117 nM	PRO5052 (PRO4672 with 33-03-G02-based PDL1-BD), anti-CD47 x PDL1 x LILRB2, (scFv)2-Fc-(scFv)2 (trispecific antibody) chain 1: DVQMTQSPSSLSASVGDRVTITCQASQSISSWVSWYQQKPGKPPKLLIYRGGYLESGVPSRFSASGSGTDFTLTISSLQPEDFATYYCQSTDSSTYGGAFGCGTKVTVLGGGGGSGGGGSGGGGSGGGGSQQVVESGGGLVQPGGSLRLSCAVSGIDLNSYAMTWVRQAPGKCLEWIGYIGSASSTYYASWASGRFTISKDNSKNTVYLQMNSLRAEDSAVYFCARGSTYINIWGQGTLVKVSSEPKSSDKTHTCPPCPAPELLGGPSVFLFPPKPKDTLMISRTPEVTCVVVDVSHEDPEVKFNWYVDGVEVHNAKTKPREEQYNSTYRVVSVLTVLHQDWLNGKEYKCKVSNKALPAPIEKTISKAKGQPREPQVYTLPPCREEMTKNQVSLSCAVKGFYPSDIAVEWESNGQPENNYKTTPPVLDSDGSFFLVSKLTVDKSRWQQGNVFSCSVMHEALHNHYTQKSLSLSPGKGGGGSGGGGSDVQMTQSPSSLSASVGDRVTITCQASQSIGSNLAWYQQKPGKPPKLLIYKGGTLESGVPSRFSGSGSGTDFTLTISSLQPEDFATYYCQSTAGSSRSGNYGYVFGCGTKVTVLGGGGGSGGGGSGGGGSGGGGSQQLVESGGGLVQPGGSLRLSCAASGFSFTNNYYMCWVRQAPGKCLEWIACMLVGAWGNTYYASWANGRFTISKDNSKNTVYLQMNSLRAEDSAVYFCARARDYTWTLGGDPETSGFNLWGQGTLVKVSS chain 2: not shown
–	–	–	–	–	–	0.0705 nM	0.063 nM	0.141 nM	PRO5055 (PRO4687 with 33-03-G02-based PDL1-BD), anti-CD47 x PDL1 x LILRB2 (trispecific antibody, human IgG1, kappa) DVQMTQSPSSLSASVGDRVTITCQASQSISSWVSWYQQKPGKPPKLLIYRGGYLESGVPSRFSASGSGTDFTLTISSLQPEDFATYYCQSTDSSTYGGAFGCGTKVTVLGGGGGSGGGGSGGGGSGGGGSQQVVESGGGLVQPGGSLRLSCAVSGIDLNSYAMTWVRQAPGKCLEWIGYIGSASSTYYASWASGRFTISKDNSKNTVYLQMNSLRAEDSAVYFCARGSTYINIWGQGTLVKVSSEPKSSDKTHTCPPCPAPELLGGPSVFLFPPKPKDTLMISRTPEVTCVVVDVSHEDPEVKFNWYVDGVEVHNAKTKPREEQYNSTYRVVSVLTVLHQDWLNGKEYKCKVSNKALPAPIEKTISKAKGQPREPQVYTLPPCREEMTKNQVSLSCAVKGFYPSDIAVEWESNGQPENNYKTTPPVLDSDGSFFLVSKLTVDKSRWQQGNVFSCSVMHEALHNHYTQKSLSLSPGKGGGGSGGGGSDVQMTQSPSSLSASVGDRVTITCQASQSIGSNLAWYQQKPGKPPKLLIYKGGTLESGVPSRFSGSGSGTDFTLTISSLQPEDFATYYCQSTAGSSRSGNYGYVFGCGTKVTVLGGGGGSGGGGSGGGGSGGGGSQQLVESGGGLVQPGGSLRLSCAASGFSFTNNYYMCWVRQAPGKCLEWIACMLVGAWGNTYYASWANGRFTISKDNSKNTVYLQMNSLRAEDSAVYFCARARDYTWTLGGDPETSGFNLWGQGTLVKVSS heavy: not shown light: DIQMTQSPSSLSASVGDRVTITCQASQSINDYLAWYQQKPGKAPKLLIYKGGTLASGVPSRFSGSGSGTDFTLTISSLQPEDFATYYCQQGYIITDIDNVFGQGTKVEIKRTVAAPSVFIFPPSDEQLKSGTASVVCLLNNFYPREAKVQWKVDNALQSGNSQESVTEQDSKDSTYSLSSTLTLSKADYEKHKVYACEVTHQGLSSPVTKSFNRGEC
–	–	–	–	–	–	0.205 nM	0.097 nM	0.175 nM	PRO4687 (37-20-B03-based PDL1-BD), anti-CD47 x PDL1 x LILRB2 (trispecific antibody, human IgG1, kappa) DVQMTQSPSSLSASVGDRVTITCQASQSISSWVSWYQQKPGKPPKLLIYRGGYLESGVPSRFSASGSGTDFTLTISSLQPEDFATYYCQSTDSSTYGGAFGCGTKVTVLGGGGGSGGGGSGGGGSGGGGSQQVVESGGGLVQPGGSLRLSCAVSGIDLNSYAMTWVRQAPGKCLEWIGYIGSASSTYYASWASGRFTISKDNSKNTVYLQMNSLRAEDSAVYFCARGSTYINIWGQGTLVKVSSEPKSSDKTHTCPPCPAPELLGGPSVFLFPPKPKDTLMISRTPEVTCVVVDVSHEDPEVKFNWYVDGVEVHNAKTKPREEQYNSTYRVVSVLTVLHQDWLNGKEYKCKVSNKALPAPIEKTISKAKGQPREPQVYTLPPCREEMTKNQVSLSCAVKGFYPSDIAVEWESNGQPENNYKTTPPVLDSDGSFFLVSKLTVDKSRWQQGNVFSCSVMHEALHNHYTQKSLSLSPGKGGGGSGGGGSDVQMTQSPSSLSASVGDRVTITCQASQSIGSNLAWYQQKPGKPPKLLIYKGGTLESGVPSRFSGSGSGTDFTLTISSLQPEDFATYYCQSTAGSSRSGNYGYVFGCGTKVTVLGGGGGSGGGGSGGGGSGGGGSQQLVESGGGLVQPGGSLRLSCAASGFSFTNNYYMCWVRQAPGKCLEWIACMLVGAWGNTYYASWANGRFTISKDNSKNTVYLQMNSLRAEDSAVYFCARARDYTWTLGGDPETSGFNLWGQGTLVKVSS heavy: not shown light: DIQMTQSPSSLSASVGDRVTITCQASQSIGTYLAWYQQKPGKPPKLLIYRGGILASGVPSRFSGSGSGTDFTLTISSLQPEDFATYYCQSNFYSDSTTIGPNAFGQGTKVEIKRTVAAPSVFIFPPSDEQLKSGTASVVCLLNNFYPREAKVQWKVDNALQSGNSQESVTEQDSKDSTYSLSSTLTLSKADYEKHKVYACEVTHQGLSSPVTKSFNRGEC

From patent EP4574843A1 (Numab Therapeutics AG, dated 2025)
